In article PMC5141509, “Identification of protein structural elements responsible for the diversity of sequence preferences among Mini-III RNases”:

How the values were obtained:
CtMiniIII = test: filter binding; settings: Enzyme-specific cleavage buffer (Table S1, mostly not in material) with MgCl2 replaced by 1 mM CaCl2; 1.5 nM 33P-dsRNA, 50 ul, 1 h at room temperature …
Ct(FpH)MiniIII (chimera) = test: filter binding; settings: Enzyme-specific cleavage buffer (Table S1, mostly not in material) with MgCl2 replaced by 1 mM CaCl2; 1.5 nM 33P-dsRNA, 50 ul, 1 h at room temperature …
FpMiniIII = test: filter binding; settings: Enzyme-specific cleavage buffer (Table S1, mostly not in material) with MgCl2 replaced by 1 mM CaCl2; 1.5 nM 33P-dsRNA, 50 ul, 1 h at room temperature …
SeMiniIII = test: filter binding; settings: Enzyme-specific cleavage buffer (Table S1, mostly not in material) with MgCl2 replaced by 1 mM CaCl2; 1.5 nM 33P-dsRNA, 50 ul, 1 h at room temperature …
[1] = test system: Ct(FpHL)MiniIII (chimera); test: filter binding; settings: Enzyme-specific cleavage buffer (Table S1, mostly not in material) with MgCl2 replaced by 1 mM CaCl2; 1.5 nM 33P-dsRNA, 50 ul, 1 h at room temperature …
Ct(FpL)MiniIII (chimera) = test: filter binding; settings: Enzyme-specific cleavage buffer (Table S1, mostly not in material) with MgCl2 replaced by 1 mM CaCl2; 1.5 nM 33P-dsRNA, 50 ul, 1 h at room temperature …
BsMiniIII = target: T1, BsMiniIII (Bacillus subtilis, UniProt O31418 1-143); test: filter binding; 1 mM Ca2+ (no Mg2+); Enzyme-specific cleavage buffer (Table S1, mostly not in material) with MgCl2 replaced by 1 mM CaCl2; 1.5 nM 33P-dsRNA, 50 ul, 1 h at room temperature; nitrocellulose filter; one-site fit; settings: protein: recombinant; tags: N-terminal His6 (pET28a, NdeI/XhoI); chain copies: 2; label: 33P 5' end label; blunt
T1 sequence: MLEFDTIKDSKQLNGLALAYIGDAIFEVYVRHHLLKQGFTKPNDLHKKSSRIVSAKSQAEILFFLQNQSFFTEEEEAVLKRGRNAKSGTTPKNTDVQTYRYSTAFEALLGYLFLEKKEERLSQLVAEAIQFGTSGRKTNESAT

CCUGUCCCCCGCCGAAGUCGCUGCAAUU / AAUUGCAGCGACUUCGGCGGGGGACAGG [NEG]
Kd (CtMiniIII): 1340 nM
Kd (Ct(FpH)MiniIII (chimera)): 1940 nM
Kd (FpMiniIII): 19.9 µM
Kd (SeMiniIII): 190 nM
Kd [1]: 2250 nM
Kd (Ct(FpL)MiniIII (chimera)): 1800 nM

GCUGGGAGGGAAACCUCUCUCUCUGGCC / GGCCAGAGAGAGAGGUUUCCCUCCCAGC [POS-ACCU]
Kd (CtMiniIII): 1140 nM
Kd (Ct(FpH)MiniIII (chimera)): 2620 nM
Kd (FpMiniIII): > 100 µM
Kd (SeMiniIII): 160 nM
Kd [1]: 2170 nM
Kd (Ct(FpL)MiniIII (chimera)): 1330 nM

B1: NEG (dsRNA)
RNA 1: CCUGUCCCCCGCCGAAGUCGCUGCAAUU
RNA 2: AAUUGCAGCGACUUCGGCGGGGGACAGG
Kd (BsMiniIII): 70 ± 10 nM

B2: POS-ACCU (dsRNA)
RNA 1: GCUGGGAGGGAAACCUCUCUCUCUGGCC
RNA 2: GGCCAGAGAGAGAGGUUUCCCUCCCAGC
Kd (BsMiniIII): 140 ± 20 nM
